Measured values: the supplement of paper PMC10126150
± gives the standard deviation of the averaged measurements.

System: ATP
Test: switch fluorescence ratio, 500 uM ATP over buffer (Cy3 cluster intensity, sum of 5 cycles each) (fold (ratio)); higher = stronger signal-on switching upon ATP binding; sequences stand for … in TCGTCGGCAGCGTCAGATGTGTATAAGAGACAGTTTTTTTTTTTTTTTTTTTTTTTTT…TC
Conditions: aptamer strand: ATP DNA aptamer (quencher-CACCTGGGGGAGTATTGCGGAGGAAGG + anchor), 100 nM annealed; ATP concentration: 500 uM
Outline: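 After annealing to 100 nM quencher-labelled ATP aptamer, Cy3-labelled switching-strand clusters on a modified Illumina MiSeq flow-cell were imaged in selection buffer. A second image followed after 15 min with 500 uM ATP at 22 °C, and five such buffer/ATP cycles were done, each separated by NaOH stripping and re-annealing. The fluorescence ratio, averaged per switch-domain sequence, is summed target-cycle over summed buffer-cycle Cy3 intensity per cluster, with clusters outside 100-1000 RFU excluded.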
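Note: ATP exposure 15 min at 22 °C before imaging.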

| Sequence | switch fluorescence ratio |
| --- | --- |
| GTGTTCGAGT | 0.986 ± 0.034 |
| AAGGTAATGG | 1.02 ± 0.014 |
| TCGGTAGGGG | 0.999 ± 0.025 |
| GTTAGGAGTC | 0.992 ± 0.018 |
| TATTTAAAAT | 0.995 ± 0.046 |
| CTAGGACTTG | 0.945 ± 0.026 |
| TGGGAAAGAA | 1.04 ± 0.068 |
| ATTAATATCA | 0.9629 ± 0.0017 |
| AAGGGATGAT | 0.978 ± 0.019 |
| AAAAACGGGG | 1.009 ± 0.0075 |
| TCCTCCGTGG | 2.56 ± 0.59 |
| TTAGCTCTA | 1.012 ± 0.0054 |
| GTTTTACGTG | 0.998 ± 0.024 |
| AAGCTGTTAT | 1.16 ± 0.29 |
| TCCGGACCGG | 0.995 ± 0.019 |
| ACACTAGGTG | 1.42 ± 0.023 |
| GCGTTTACTT | 1.004 ± 0.0016 |
| CCAGGGTTGG | 1.04 ± 0.048 |
| AAGGGCTGCA | 1.032 ± 0.0052 |
| GAAGGGCTAG | 0.9985 ± 0.0061 |
| TAAGCGGTTG | 0.989 ± 0.016 |
| GACGGTTATT | 1.002 ± 0.0036 |
| AGGATCCTCG | 0.992 ± 0.018 |
| AAATTAGGTC | 0.95 ± 0.11 |
| GCGGCCCGAG | 0.962 ± 0.022 |

| Sequence | switch fluorescence ratio |
| --- | --- |
| ATCGGATTTT | 1.17 ± 0.22 |
| GCGACCATCC | 1.8 ± 0.08 |
| ATATTTTGAC | 1.05 ± 0.061 |
| GATTCTCAAG | 0.9746 ± 0.0056 |
| CTCCAGACGA | 1.47 ± 0.083 |
| CGATGTCTCT | 0.973 ± 0.047 |
| CAAAGGCGGA | 0.991 ± 0.014 |
| ATACCAGTG | 1.12 ± 0.055 |
| ATATAAGTTC | 1.06 ± 0.055 |
| ATGTGGTTAG | 0.994 ± 0.03 |
| TTTAGCTGAA | 0.962 ± 0.024 |
| CTCGTCCTTA | 1.019 ± 0.0051 |
| ATGTTTGGAC | 1.01 ± 0.02 |
| TCTAATTCCT | 1.06 ± 0.024 |
| GTCAGTTTTT | 0.99392 ± 0.00038 |
| ACTTAGAATA | 1.032 ± 0.0033 |
| ATTGAGCCAG | 1.03 ± 0.023 |
| ATGTGACGCA | 1.13 ± 0.012 |
| ATAAGGCTTT | 0.989 ± 0.029 |
| ACGGGCTGCT | 1 ± 0.018 |
| TGAGGGGAGG | 1.13 ± 0.15 |
| ATGTGGTGCA | 1.02 ± 0.0034 |
| GATCTAGTTA | 0.996 ± 0.054 |
| CGAGTTGGCT | 1 ± 0.032 |
| TTTTAGGATG | 0.996 ± 0.025 |

| Sequence | switch fluorescence ratio |
| --- | --- |
| TCCAATCATG | 0.9765 ± 0.0095 |
| GTTATATTG | 1.01 ± 0.031 |
| ATTTAGTTGT | 1.03 ± 0.03 |
| ATTAATGTGT | 0.9987 ± 0.0011 |
| CAAATGTCAA | 0.987 ± 0.015 |
| CAAGGGGGGA | 1.01 ± 0.023 |
| ACTCTTATAA | 1.048 ± 0.0059 |
| TCAATAGGTT | 1.01 ± 0.024 |
| ATAAGGAGGG | 1 ± 0.01 |
| CTAAATAATA | 0.992 ± 0.027 |
| TGCATGTCCT | 1.029 ± 0.0088 |
| CGTAACTAGG | 1.02 ± 0.03 |
| TTCAGGAGTG | 0.993 ± 0.067 |
| ACGTCAAGTA | 0.985 ± 0.022 |
| GATAGGTGAG | 1.01 ± 0.024 |
| CCATGGGCGA | 1.1 ± 0.02 |
| GTGTTTAAAA | 0.995 ± 0.013 |
| TGAGGAATGG | 0.9987 ± 0.0036 |
| TGATGAAATG | 1.01 ± 0.049 |
| TTGCACGGTT | 1.04 ± 0.06 |
| TGATAGAGTG | 1.01 ± 0.074 |
| GCAGTTGGAA | 1.058 ± 0.0089 |
| TCAGAAAGTG | 1 ± 0.041 |
| TGAAATCAGT | 1.01 ± 0.018 |
| GAATTGGTAA | 1.013 ± 0.0076 |

| Sequence | switch fluorescence ratio |
| --- | --- |
| AGGCTTAGGG | 1.03 ± 0.022 |
| TTAGGGAA | 1.01 ± 0.023 |
| GGTAGTACGG | 0.983 ± 0.014 |
| TTGCTCGTGG | 1.028 ± 0.0047 |
| TTTGGAGATA | 1.03 ± 0.032 |
| GATCTAAAAC | 0.9594 ± 0.0053 |
| GTCAGAACTA | 0.9786 ± 0.0095 |
| GCTTGAGGAA | 0.982 ± 0.034 |
| CAATGACACT | 1.04 ± 0.044 |
| AGGGTCAGTG | 1.02 ± 0.062 |
| GGGCGGCCTT | 1.03 ± 0.068 |
| TTATTATGGG | 0.987 ± 0.0073 |
| GATGTACCTC | 1.05 ± 0.0046 |
| TATAAAAATC | 1.07 ± 0.084 |
| TGAGGGATGA | 1.028 ± 0.0075 |
| GAGTGCGGGC | 1.07 ± 0.068 |
| TCGGGGGAAT | 1.11 ± 0.14 |
| GGGCCCCTTG | 1.01 ± 0.073 |
| CGATTTATGT | 0.9925 ± 0.0057 |
| TTTTTAGTCC | 1 ± 0.023 |
| AATACGGGG | 0.985 ± 0.016 |
| TATTCGTTCT | 0.9985 ± 0.0022 |
| AAATTGGGG | 0.9583 ± 0.0056 |
| CGTATGGTTC | 0.996 ± 0.031 |
| ATTTGGATGG | 0.985 ± 0.023 |

| Sequence | switch fluorescence ratio |
| --- | --- |
| GGTAGTGAGT | 0.9765 ± 0.0078 |
| TTGCCTGTGT | 1.039 ± 0.0012 |
| TAACGATGGG | 1.014 ± 0.01 |
| ACACAATAGG | 1.04 ± 0.025 |
| GAGGATGAGG | 0.954 ± 0.0017 |
| AATAGGCATG | 0.979 ± 0.0098 |
| CGAGGGTAAG | 1 ± 0.0022 |
| AAAATTAGGC | 0.919 ± 0.063 |
| GACTTAGTTG | 0.987 ± 0.0068 |
| GGGAATGGGA | 0.997 ± 0.027 |
| TATGAGGATT | 0.9749 ± 0.0023 |
| TTTCTGTTGG | 0.992 ± 0.035 |
| CATAGACGGG | 1.03 ± 0.081 |
| TCTATTGGTT | 0.966 ± 0.021 |
| CGTAGTGGGG | 0.993 ± 0.044 |
| TGCTTCTGAA | 0.9635 ± 0.0092 |
| TTGTGCCGGT | 0.988 ± 0.037 |
| GTTGGTTTGT | 0.986 ± 0.019 |
| TTGTTGTTAC | 0.9998 ± 0.0074 |
| ATTGGAGTTA | 0.999 ± 0.012 |
| CGGGGAATCA | 0.991 ± 0.038 |
| ACAGTGTCTT | 1.01 ± 0.03 |
| GAAAAAGGTT | 0.969 ± 0.011 |
| AGTTGCCGCG | 0.996 ± 0.012 |
| GAGGTTTGCG | 0.965 ± 0.028 |

| Sequence | switch fluorescence ratio |
| --- | --- |
| GTTGTGTGTG | 0.974 ± 0.041 |
| AGGGGACTAT | 1 ± 0.013 |
| TTGGGATAAC | 1.04 ± 0.058 |
| ATAAAAATCG | 0.989 ± 0.027 |
| CGGGCCCCGG | 1.74 ± 0.35 |
| CGGTGAGTGT | 0.9608 ± 0.0063 |
| GGGTAATGAG | 1 ± 0.022 |
| TATAAATAGT | 0.96 ± 0.046 |
| AATGTGCAAA | 1.01 ± 0.022 |
| AGGGATTTGT | 1.028 ± 0.003 |
| TGTTTTTGGA | 1 ± 0.026 |
| GTTTATTCGC | 0.998 ± 0.043 |
| GGCCCAGAAA | 1.003 ± 0.0097 |
| ATATGGAAAT | 1.006 ± 0.0027 |
| GGTGCCGGTT | 0.997 ± 0.054 |
| AACGTACTGG | 1.52 ± 0.095 |
| AAAAGCATGT | 1.06 ± 0.03 |
| GAGATCGCC | 0.982 ± 0.016 |
| CGAAGGGTCC | 0.959 ± 0.031 |
| AACGTTTGCG | 0.986 ± 0.017 |
| GAGGGGTCCT | 1.24 ± 0.39 |
| TATATTCAGT | 1.02 ± 0.0099 |
| ATTTTGTGTA | 1.005 ± 0.004 |
| CAGAGAGGTC | 1.03 ± 0.039 |
| TTTGATAACG | 0.987 ± 0.012 |

| Sequence | switch fluorescence ratio |
| --- | --- |
| GGTTTTAAAT | 0.98195 ± 0.00028 |
| AGGAGGTATT | 0.99 ± 0.026 |
| ATCGGTGGTG | 0.9839 ± 0.0058 |
| GTGCTTGCGG | 1.01 ± 0.036 |
| CCAGTGATGG | 1 ± 0.042 |
| CGGACACGAA | 0.981 ± 0.022 |
| TCGTGTTTCA | 1 ± 0.014 |
| CCGTGGCGCA | 1.88 ± 0.21 |
| TCGGCAATGT | 2.32 ± 1.6 |
| GGCTATTGGA | 0.971 ± 0.012 |
| GTGGTATGGT | 1.02 ± 0.025 |
| AAGGGGGTGA | 1.01 ± 0.025 |
| TTATCATGGG | 0.993 ± 0.047 |
| GGGGGGGCCG | 0.993 ± 0.048 |
| TCAGTGCTGT | 1 ± 0.035 |
| ACTTTTCGGG | 0.9921 ± 0.0056 |
| TATGCATGTG | 0.996 ± 0.015 |
| GTGTTTGGGT | 0.978 ± 0.03 |
| GTGCCCACGT | 1 ± 0.039 |
| TCCCAAACAT | 1.06 ± 0.009 |
| AGAAATGAAT | 1.04 ± 0.024 |
| TTTTAGGGGA | 1.01 ± 0.025 |
| GTAGGGGATT | 1.029 ± 0.006 |
| AATATCTTGC | 1.05 ± 0.028 |
| ATTACGTTTT | 0.989 ± 0.039 |

| Sequence | switch fluorescence ratio |
| --- | --- |
| GGGGCTTAAG | 1.02 ± 0.035 |
| AGCTATCAGC | 1.01 ± 0.047 |
| GGTTGCATTA | 0.9923 ± 0.0019 |
| CGGGAGTTAA | 1.01 ± 0.015 |
| TTTGCTAAA | 1.01 ± 0.046 |
| ATGTCAAAGC | 0.984 ± 0.063 |
| TACCTGCGAA | 2.07 ± 1.3 |
| CCTGAGGGAC | 0.99 ± 0.03 |
| TTAAATTATT | 0.984 ± 0.024 |
| TTTATGAGCG | 0.973 ± 0.028 |
| CCGGAAGACG | 1.39 ± 0.18 |
| CCATGGGTTC | 1.0016 ± 0.00068 |
| CGCCGGCGGG | 0.978 ± 0.034 |
| ACAAAAATAG | 0.993 ± 0.04 |
| TTTGGCATCA | 1.04 ± 0.013 |
| TAAGGAGCGG | 0.976 ± 0.013 |
| TTAGCCGTTG | 1.03 ± 0.015 |
| GCCGGGGTTG | 1 ± 0.021 |
| GGAGGAAGTA | 1.03 ± 0.044 |
| TGGTTTAGGG | 0.981 ± 0.026 |
| AACATTTCTT | 0.976 ± 0.045 |
| CGGGATTTAA | 1.03 ± 0.054 |
| AAGACCGGCA | 1.01 ± 0.038 |
| ATCAAAGAAC | 1.05 ± 0.042 |
| TTTTTTGAAC | 1.01 ± 0.03 |
